In patent publication US20180319855A1, “GENETICALLY MUTATED AEQUORIN-BASED BIOSENSORS WITH EXTRA SENSITIVITY TO CALCIUM AND IMPROVED BIOLUMINESCENCE INTENSITY” (CENTRE NATIONAL DE LA RECHERCHE SCIENTIFIQUE (CNRS), priority 2015, published 2018):
Where a chain is given by its changes, count along the chain named. In names and notes the source's numbering stands.

Tests used:
[1] = Thermostability: relative bioluminescence activity after 30 min incubation; assay type: physicochemical; conditions: CLZ-f
How it was run: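 Purified photoprotein was reconstituted with CLZ-f and read for total counts with saturating calcium (50 mM Tris-HCl, 100 mM CaCl2, pH 7.5). It was then held at 30 to 40 °C for 30 min, re-equilibrated for 15 min and read again. Activity is 2nd/1st counts ×100.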

[2] = system: pyramidal neurons of mouse neocortical slices; experiment: Bioluminescence Ca2+ imaging of transduced neocortical slices in Mg2+-free ACSF; assay type: cell-based; conditions: native coelenterazine, 25 Hz
Procedure: Recombinant Sindbis viruses were prepared and used to express Redquorin mutants and GA in neurons of brain slices as described (Drobac et al., 2010), (Tricoire and Lambolez, 2014). The coding sequences of Redquorin mutants and GA were first subcloned in the plasmid pSinRep5 (Invitrogen) upstream to the polyA signal. The resulting pSinRep5 plasmids encoding the fusion protein sensors as well as the helper plasmid pDH26S (Invitrogen) were then submitted to in vitro transcription to prepare capped RNA using the Megascript SP6 kit (Ambion). […]
Bioluminescence imaging was performed at room temperature using an intensified CDD video camera (ICCD225; Photek) controlled by the IFS32 software (Photek), and mounted on an upright microscope (BX51WI, Olympus) equipped with water immersion objectives ×10 (NA=0.3) and ×20 (NA=0.95). Prior to bioluminescence imaging, fluorescence images of GA- or Redquorin-transduced slices were acquired in the “bright field” mode of the camera using GFP (Semrock) or Cy3ET (Chroma) filter sets. […]
The transduced acute brain slices expressing the sensors were then perfused with artificial cerebrospinal fluid (ACSF) without Mg^2+. […] Before the threshold for depolarization, the recorded imaging intensity was very weak consistent with the concept of low background luminescence of photoproteins. […]

B1: Redq/Q159T: aporedquorin (tdTomato-aequorin fusion) mutant Q159T (SEQ ID NO:22) (protein)
chain: MVSKGEEVIKEFMRFKVRMEGSMNGHEFEIEGEGEGRPYEGTQTAKLKVTKGGPLPFAWDILSPQFMYGSKAYVKHPADIPDYKKLSFPEGFKWERVMNFEDGGLVTVTQDSSLQDGTLIYKVKMRGTNFPPDGPVMQKKTMGWEASTERLYPRDGVLKGEIHQALKLKDGGHYLVEFKTIYMAKKPVQLPGYYYVDTKLDITSHNEDYTIVEQYERSEGRHHLFLGHGTGSTGSGSSGTASSEDNNMAVIKEFMRFKVRMEGSMNGHEFEIEGEGEGRPYEGTQTAKLKVTKGGPLPFAWDILSPQFMYGSKAYVKHPADIPDYKKLSFPEGFKWERVMNFEDGGLVTVTQDSSLQDGTLIYKVKMRGTNFPPDGPVMQKKTMGWEASTERLYPRDGVLKGEIHQALKLKDGGHYLVEFKTIYMAKKPVQLPGYYYVDTKLDITSHNEDYTIVEQYERSEGRHHLFLSGFDNPRWIGRHKHMFNFLDVNHNGKISLDEMVYKASDIVINNLGATPEQAKRHKDAVEAFFGGAGMKYGVETDWPAYIEGWKKLATDELEKYAKNEPTLIRIWGDALFDIVDKDQNGAITLDEWKAYTKAAGIIQSSEDCEETFRVCDIDESGTLDVDEMTRQHLGFWYTMDPACEKLYGGAVP
modifications: mutant aequorin
In the case of B1, the “Thermostability, luminescence activity relative to wt-aequorin” value ([1]; 30° C. for 30 min) is reported as 0.90, the “Thermostability, luminescence activity relative to wt-aequorin” value ([1]; 40° C. for 30 min) is reported as 0.92 and the “bioluminescence imaging response to Ca2+ transients” value [2] is reported as “performed as well as its analogue GA”.

B2: Redq/Q159D: aporedquorin (tdTomato-aequorin fusion) mutant Q159D (SEQ ID NO:21) (protein)
chain: B1 chain with T623D
modifications: mutant aequorin
With B2 the “Thermostability, luminescence activity relative to wt-aequorin” value ([1]; 30° C. for 30 min) was 0.91, the “Thermostability, luminescence activity relative to wt-aequorin” value ([1]; 40° C. for 30 min) was 0.95 and the “bioluminescence imaging response to Ca2+ transients” value [2] was “significant signal-over-background ratio”.
